Test results taken from the supplement of paper PMC9170038.

Test system: MS2 coat protein
Experiment: apparent KD of MS2 coat protein; designed switch direction (-1 OFF switch, 1 ON switch): -1; higher = weaker reporter binding
Summary of the method: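 Designed RNA switches sharing common flanks were transcribed on Illumina chips by stalled E. coli RNA polymerase. They were titrated with SNAP-549-labelled MS2 coat protein, from 0.7 or 1.5 nM doubling to 3 µM, in Tris-HCl pH 7.5 buffer with KCl, MgCl2, BSA, DTT, tRNA and Tween-20. Titrations ran without input, with 200 uM small-molecule ligand, or with an oligonucleotide input. The apparent KD of each design is the median over its clusters, after curve-fitting of normalised cluster fluorescence.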

[1] = input ligand: microRNA oligo, concentration not stated
[2] = Eterna round: R95, input ligand: FMN 200 uM
[3] = Eterna round: R95, input ligand: microRNA oligo, concentration not stated
[4] = Eterna round: R95, input ligand: none

AACAUGUGAGGAUAUGAGAACAGUCCGGAGGACUGUGUAAAUUAGAAGGCACAUGAGGAUCACCCAUGUGACCU [Laonar] (Eterna round: R97, puzzle: Exclusion 4)
apparent KD of MS2 coat protein (input ligand: FMN 200 uM): 32.6 nM
apparent KD of MS2 coat protein (input ligand: none): 15.8 nM

CAUUAGCGAGGAUAUACAUGAGGAUCACCCAUGUGAUCCUAAGGCUGAUGAAGCCUAUGUAGAAGGCGCAAAUU [jl-ex3.4.54 ViennaUCT mod] (Eterna round: R97, puzzle: Exclusion 3)
apparent KD of MS2 coat protein (input ligand: FMN 200 uM): 107 nM
apparent KD of MS2 coat protein (input ligand: none): 42.2 nM

AAAAGGUGAGGAUAUCCGACGUUGCACUUGAGGAUCACCCAAGUUCCUCGCGUGCUUUUAGGAGAAGGCACAAAAC [Tegezaza] (Eterna round: R97, puzzle: Exclusion 5)
apparent KD of MS2 coat protein (input ligand: FMN 200 uM): 77.3 nM
apparent KD of MS2 coat protein (input ligand: none): 982 nM

CAUAGUUGCUCAGGAUAUCAUACAUGAGGAUCACCCAUGUAAUAAAUGAGAAUUUCGAAUGUAAAUGAGAAGGGAGAAAUCUAC [Ostracism 60 - Jieux - Exclusion NG 2] (Eterna round: R96, puzzle: Exclusion NG 2)
apparent KD of MS2 coat protein (input ligand: FMN 200 uM): 22.5 nM
apparent KD of MS2 coat protein [1]: 11.6 nM
apparent KD of MS2 coat protein (input ligand: none): 14.4 nM

CUCUUGUGAGGAUAUCGAAGAAAAGAAAAGAAAGAAAAGAACGAGAAGGCACAUGAGGAUCACCCAUGUAAGAA [EteRNA is fun!] (Eterna round: R96, puzzle: Exclusion 4)
apparent KD of MS2 coat protein (input ligand: FMN 200 uM): 127 nM
apparent KD of MS2 coat protein [1]: 30.4 nM
apparent KD of MS2 coat protein (input ligand: none): 39.4 nM

GGUUAGAUGGUAGGAUAUCCAUAUCGAGUGACCCUUUCAUAACAUGAGGAUCACCCAUGUCGGUGGGAGAAGGGCCGUACGGCG [salish99_ExNG02_R04_011] (Eterna round: R96, puzzle: Exclusion NG 2)
apparent KD of MS2 coat protein (input ligand: FMN 200 uM): 35.5 nM
apparent KD of MS2 coat protein [1]: 38.3 nM
apparent KD of MS2 coat protein (input ligand: none): 33.2 nM

GUCGUGCAGCUUUGCUGUACGAGUACAUGAGGAUCACCCAUGUAGGAUAUGGUACGCUUUGCGUGCUAGAAGGAUAUGUGUAGC [salish99_ExNG3_r04_503] (Eterna round: R96, puzzle: Exclusion NG 3)
apparent KD of MS2 coat protein (input ligand: FMN 200 uM): 44.8 nM
apparent KD of MS2 coat protein [1]: 29 nM
apparent KD of MS2 coat protein (input ligand: none): 37.1 nM

GCGAAAGCAAGCAAGUGAAACAUGAGGAUCACCCAUGUCCUCAUUUGCUCGUCUUAUAAGCUAUGCGAAAGCAUAGC [Sensor 3, v1 - 2] (puzzle: Sensor v3, turn-off variant 1)
apparent KD of MS2 coat protein [2]: 13.9 nM
apparent KD of MS2 coat protein [3]: 220 nM
apparent KD of MS2 coat protein [4]: 10.5 nM

AGAUCUAGGACAGGAUAUACAGAUGGCUUCAUCGAAGAUGAAGCCAUUACAUGAGGAUCACCCAUGUAGAAGGGUCCUAGAUCA [Omei Exc(NG) 2Av5] (Eterna round: R96, puzzle: Exclusion NG 2)
apparent KD of MS2 coat protein (input ligand: FMN 200 uM): 17.7 nM
apparent KD of MS2 coat protein [1]: 12 nM
apparent KD of MS2 coat protein (input ligand: none): 14.2 nM

UGCAUGGUAGGAUAUACGGAACAUUAGGGUUUGUUAUGUGGACAUGAGGAUCACCCAUGUAGAAGGGCCGUGCU [JL-ex2-2.15 mat747 mod] (puzzle: Exclusion 2)
apparent KD of MS2 coat protein [3]: 40.4 nM

AUAACGUAGCGAGGAUAUACGCGAGAUCGUUGCGUAGAAGGUGUAUCGUUGGACUUGAGGAUCACCCAAGUGAUGAGUCCUUCC [Mutated MS2 EX1.20] (Eterna round: R96, puzzle: Exclusion NG 1)
apparent KD of MS2 coat protein (input ligand: FMN 200 uM): 43.8 nM
apparent KD of MS2 coat protein [1]: 34.7 nM
apparent KD of MS2 coat protein (input ligand: none): 40.7 nM

GACUAAAUGUGGUUUGGUUACAUGAGGAUCACCCAUGUUGGUCUAAGAACAUGUCUUUUGUACGCUUGUCUUAUAUA [JR_SV3TOV1_Sub067] (puzzle: Sensor v3, turn-off variant 1)
apparent KD of MS2 coat protein [2]: 630 nM
apparent KD of MS2 coat protein [3]: 324 nM
apparent KD of MS2 coat protein [4]: 896 nM

GGAGGACGAGCAGGAUAUUUUCACAUGAGGAUCACCCAUGUGUACUCAGGGUAAUCCUCCGCCGAAAAGAAGGGUUCGGAAUAA [Mat - Exclusion NG 2 - Mod of JL - D81] (Eterna round: R96, puzzle: Exclusion NG 2)
apparent KD of MS2 coat protein (input ligand: FMN 200 uM): 39.8 nM
apparent KD of MS2 coat protein [1]: 27.8 nM
apparent KD of MS2 coat protein (input ligand: none): 74.1 nM

AGAGUGUGAGGAUAUAUGGUGCAGAUGAAGGGAUAGAAGGAGUAGAAGGUACAUGAGGAUCACCCAUGUUAGGA [JR_Exclu4_Sub077] (puzzle: Exclusion 4)
apparent KD of MS2 coat protein [3]: 25.5 nM

GCACGGAGUGUAGGAUAUCUGUGCGAUUAGCUCAGAGAAGGACACAUGAGGAUCACCCAUGUGUAACUCAAUACUAAUCCGUGC [Eli exng1 - 077] (Eterna round: R96, puzzle: Exclusion NG 1)
apparent KD of MS2 coat protein (input ligand: FMN 200 uM): 10.6 nM
apparent KD of MS2 coat protein [1]: 7.89 nM
apparent KD of MS2 coat protein (input ligand: none): 10.7 nM

AGAAAUCUGUAGGAUAUGUUGAACACCGUGUACACAGAAGGGCAGACAUGAGGAUCACCCAUGUGGUGGGCCAG [Eternabot (L1) Solution 91] (Eterna round: R97, puzzle: Exclusion 6)
apparent KD of MS2 coat protein (input ligand: FMN 200 uM): 576 nM
apparent KD of MS2 coat protein (input ligand: none): 469 nM

UAGAAUCGAGGAUAUACAUGAGGAUCACCCAUGUGUGGCCACUUGGUGUGGUCGUCAGGUAGAAGGCGAUUACA [Exclusion 3 - Mod of Jieux's Gilly Gone Silly 23 v.4] (puzzle: Exclusion 3)
apparent KD of MS2 coat protein [2]: 26.9 nM
apparent KD of MS2 coat protein [3]: 30.9 nM
apparent KD of MS2 coat protein [4]: 39.4 nM

AUAAAACAUGUAGGAUAUGCGUAGCGAAGCUAUGCAGAAGGACAUGAGGAUCACCCAUGUCUUUCCGUCUGCGAACAGACGGAA [Mat - Exclusion NG 1 - Mod of JL - D44] (Eterna round: R96, puzzle: Exclusion NG 1)
apparent KD of MS2 coat protein (input ligand: FMN 200 uM): 35.7 nM
apparent KD of MS2 coat protein [1]: 13.8 nM
apparent KD of MS2 coat protein (input ligand: none): 21 nM

CCUCGCAGGCAAGGAUAUCCUACAUUGUUCUGGCCCGGGCAUGCUACAUGAGGAUCACCCAUGUGGGAGAAGGUGCGCCACGGC [Design 31] (Eterna round: R96, puzzle: Exclusion NG 2)
apparent KD of MS2 coat protein (input ligand: FMN 200 uM): 48.3 nM
apparent KD of MS2 coat protein [1]: 28.1 nM
apparent KD of MS2 coat protein (input ligand: none): 42.2 nM

UUGUGCACGCUGCGGUCCUACAUGAGGAUCACCCAUGUGGUCUGGUGGCGUGGGUCGCCGGACUUGGCUCGUCUUGA [salish99_S_TOV1_R5_027] (Eterna round: R97, puzzle: Sensor, turn-off variant 1)
apparent KD of MS2 coat protein (input ligand: FMN 200 uM): 18.4 nM
apparent KD of MS2 coat protein (input ligand: none): 18.8 nM

UUUCAACAUGAGGAUCACCCAUGUCAGGAUAUCAUUUAGCUCAUACACUUACCAUCAUUGAGAAGGGACAUGCU [Colors] (Eterna round: R97, puzzle: Exclusion 1)
apparent KD of MS2 coat protein (input ligand: FMN 200 uM): 15.7 nM
apparent KD of MS2 coat protein (input ligand: none): 19 nM

UAACUUUUAGUAAGGAUAUCGGUCCCAAGGGACAACGAGAAGGUACAUGAGGAUCACCCAUGUGAAAUAAGAAU [Mod of Zala 3 - Jieux - Brourd's Mod of Exclusion 4] (Eterna round: R97, puzzle: Brourd's mod of Exclusion 4)
apparent KD of MS2 coat protein (input ligand: FMN 200 uM): 45.4 nM
apparent KD of MS2 coat protein (input ligand: none): 21.1 nM

AGUCCUGAUGUUAGGAUAUGCAACUAGCCAUUGUAGCAGAAGGAACAUGAGGAUCACCCAUGUACAAAGACCCA [Xeonbera] (puzzle: Brourd's mod of Exclusion 4)
apparent KD of MS2 coat protein [3]: 26.6 nM

UACACUGCAUGAGGAUCAAACAUGAGGAUCACCCAUGUAUAGCAAGCUUUUUGCUCGUCUUAUAAUUAUGUAGUGUA [Electric Eye 12 - Jieux - Sensor, turn-off variant 1] (Eterna round: R97, puzzle: Sensor, turn-off variant 1)
apparent KD of MS2 coat protein (input ligand: FMN 200 uM): 15 nM
apparent KD of MS2 coat protein (input ligand: none): 15.7 nM

AAACUACUUGGGCUGACACAUGAGGAUCACCCAUGUGGAGGGCAGGAUAUGCCCAUAAAAUUGGCGCAGAAGGGCCCACGUAGA [Tegesousbe] (Eterna round: R96, puzzle: Exclusion NG 3)
apparent KD of MS2 coat protein (input ligand: FMN 200 uM): 17.1 nM
apparent KD of MS2 coat protein [1]: 6.89 nM
apparent KD of MS2 coat protein (input ligand: none): 13.9 nM

GCUGGUCAAGGAUAUACAUGAGGAUCACCCAUGUAGAUCAACCAGCGAUAGCUGGAAUGUAGAAGGUGACCAGC [E3/5-C1] (Eterna round: R97, puzzle: Exclusion 3)
apparent KD of MS2 coat protein (input ligand: FMN 200 uM): 48.4 nM
apparent KD of MS2 coat protein (input ligand: none): 15.5 nM

UCUUAUAGAGGAUAUACAGAUUAUUACAUGAGGAUCACCCAUGUUCUUCAAUGUAUAUAUGUAGAAGGCUAAGGAU [Mat - Exclusion 5 - JL Mod - D9] (Eterna round: R97, puzzle: Exclusion 5)
apparent KD of MS2 coat protein (input ligand: FMN 200 uM): 316 nM
apparent KD of MS2 coat protein (input ligand: none): 111 nM

UGCUACGGAGGAUAUACAUGAGGAUCACCCAUGUGAUAGAUUAUCGCGAAAGCGUAAUGUAGAAGGCCGUAGCU [jl-ex3-4.11 jl mod] (Eterna round: R97, puzzle: Exclusion 3)
apparent KD of MS2 coat protein (input ligand: FMN 200 uM): 556 nM
apparent KD of MS2 coat protein (input ligand: none): 54.4 nM

AGAUCACAUGAGGAUCACCCAUGUGAGGAUAUAGAUUCAAGAGCUUCGGCUCUACAGUCUAGAAGGCACUAUGA [EX1 #46] (Eterna round: R97, puzzle: Exclusion 1)
apparent KD of MS2 coat protein (input ligand: FMN 200 uM): 30.4 nM
apparent KD of MS2 coat protein (input ligand: none): 25.7 nM

GGACCUCCUGAGGAUAUUGUAUCACCCGACUGAUAAGAAGGCAGAACAUGAGGAUCACCCAUGUGGGUACUCGG [Bingo-Bango-14] (Eterna round: R97, puzzle: Exclusion 6)
apparent KD of MS2 coat protein (input ligand: FMN 200 uM): 34.6 nM
apparent KD of MS2 coat protein (input ligand: none): 38.4 nM

CUAGGGCACAAUUAAACACCCUAACAUGAGGAUCACCCAUGUCAGGAUAUGUAGGCAAAGACCCUACAGAAGGGACAUGUCCUA [Laus] (Eterna round: R96, puzzle: Exclusion NG 3)
apparent KD of MS2 coat protein (input ligand: FMN 200 uM): 21.1 nM
apparent KD of MS2 coat protein [1]: 9.38 nM
apparent KD of MS2 coat protein (input ligand: none): 15.2 nM

AACGAUCUAGGAUAUACAUGAGGAUCACCCAUGUAAGAGCUCAAACCGAGCUCCCUCUGUAGAAGGAGGUCAAA [Atquteuson] (puzzle: Exclusion 3)
apparent KD of MS2 coat protein [3]: 48.5 nM

GGUUGGCGAGGAUAUACAUGAGGAUCACCCAUGUGAGAGGAAAAAGUGAGGAAGAAAAGUAGAAGGCGCUGACG [salish99_ex3_r3_002] (puzzle: Exclusion 3)
apparent KD of MS2 coat protein [2]: 142 nM
apparent KD of MS2 coat protein [3]: 60.8 nM
apparent KD of MS2 coat protein [4]: 56.7 nM
